Source: patent publication US20240270846A1 (published 2024)
Positions count from the first letter of the chain named. Where no end group is shown, it is not given here.

T1: biotin-labeled cynomolgus monkey CD137 fused to human IgG1 Fc fragment (cynomolgus monkey, UniProt Q07011 24-186 (human entry), limits assumed, biotin-labeled)
T1 construct: also called cyno CD137-Fc; not shown: human IgG1 Fc fragment
T1 chain: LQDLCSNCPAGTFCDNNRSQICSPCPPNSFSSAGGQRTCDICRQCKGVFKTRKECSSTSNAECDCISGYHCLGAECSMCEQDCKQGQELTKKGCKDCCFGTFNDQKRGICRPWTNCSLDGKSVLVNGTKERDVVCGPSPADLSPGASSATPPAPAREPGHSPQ

T2: biotin-labeled CD3 epsilon peptide antigen (human, also: biotin-labeled, position not given here)
T2 construct: Peptide of CD3 epsilon; also called CD3 peptide
T2 peptide: QDGNEEMGGITQTPY

T3: biotinylated CD3 epsilon epitope peptide (UniProt P07766 22-48, biotinylated)
T3 chain: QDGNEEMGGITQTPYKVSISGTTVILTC

B1: DADU01_3#002 (antibody, human IgG1, V domains shown)
VH: QVQLVESGGGLVQPGRSLRLSCAASGFTFSNAWMHWVRQAPGKGLEWVAQIKDKQNLYNAYYAESVKGRFTISRDDSKNSIYLQMNSLKTEDTAVYYCHYVHYASASTVLPAFGVDAWGQGTTVTVSS
VL: DIVMTQSPLSLPVTPGEPASISCRSSQSLVHSNRNTYLHWYQQKPGQAPRLLIYKVSNRFSGVPDRFSGSGSGTDFTLKISRVEAEDVGVYYCGQGTQVPYTFGQGTKLEIK
notes: IgG: VH joined to human IgG1 CH1-Fc; also called dBBDu124
B2: DADU01_3#018 (antibody, human IgG1, V domains shown)
VH: B1 VH with K54R, Q55A, L57S, E64P, A104S, S105A, V109L, A112S
VL: B1 VL
notes: IgG: VH joined to human IgG1 CH1-Fc; also called dBBDu123
B3: DXDU01_3#019 (antibody, human IgG1, V domains shown)
VH: QVQLVESGGGLVQPGRSLRLSCAASGFTFSIAWMHWVRQAPGKGLEWVAQIKDKVNGYTAYYAESVKGRFTISRDDSKNSIYLQMNSLKTEDTAVYYCRYVHYAAYYDVLGYGGVDAWGQGTTVTVSS
VL: B1 VL
notes: IgG: VH joined to human IgG1 CH1-Fc; also called dBBDu125
B4: DXDU01_3#051 (antibody, human IgG1, V domains shown)
VH: B1 VH with K54R, Q55G, N56Q, L57Q, E64P, T108S, A112G, F113Y
VL: B1 VL
notes: IgG: VH joined to human IgG1 CH1-Fc; also called dBBDu127
B5: DXDU01_3#072 (antibody, human IgG1, V domains shown)
VH: B1 VH with K54R, Q55S, N56Q, N59A, E64P, P111G, F113Y
VL: DIVMTQSPLSLPVTPGEPASISCRSSQSLVHSNRNTYLHWYQQKPGQAPRLLIYKVSNRFSGVPDRFSGSGSGTDFTLKISRVEAEDVGVYYCGQGTQVPYTFGQGTKLEIKR
notes: also called dBBDu122
B6: NNS6f47 (CE115HA340 with HFMWWG inserted between Kabat positions 99 and 100), one-arm antibody (antibody)
chain 1: QVQLVESGGGLVQPGRSLRLSCAASGFTFSNAWMHWVRQAPGKGLEWVAQIKDKSNNYATYYAESVKGRFTISRDDSKNSIYLQMNSLKTEDTAVYYCRYVHYAAHFMWWGYYGVDAWGQGTTVTVSSASTKGPSVFPLAPSSKSTSGGTAALGCLVKDYFPEPVTVSWNSGALTSGVHTFPAVLQSSGLYSLSSVVTVPSSSLGTQTYICNVNHKPSNTKVDKKVEPKSCDKTHTCPPCPAPEAAGGPSVFLFPPKPKDTLMISRTPEVTCVVVDVSHEDPEVKFNWYVDGVEVHNAKTKPREEQYASTYRVVSVLTVLHQDWLNGKEYKCKVSNKALPAPIEKTISKAKGQPREPQVYTLPPSRCELTKNQVSLSCAVKGFYPSDIAVEWESNGQPENNYKTTPPVLDSDGSFFLVSKLTVDKSRWQQGNVFSCSVMHEALHNHYTQKSLSLSPDYKDDDDK
chain 2: EPKSSDKTHTCPPCPAPELLGGPSVFLFPPKPKDTLMISRTPEVTCVVVDVSHEDPEVKFNWYVDGVEVHNAKTKPREEQYNSTYRVVSVLTVLHQDWLNGKEYKCKVSNKALPAPIEKTISKAKGQPREPQVCTLPPSRDELTKNQVSLWCLVKGFYPSDIAVEWESNGQPENNYKTTPPVLDSDGSFFLYSKLTVDKSRWQQGNVFSCSVMHEALHNRYTQKSLSLSP
chain 3: DIVMTQSPLSLPVTPGEPASISCRSSQSLVHSNRNTYLHWYQQKPGQAPRLLIYKVSNRFSGVPDRFSGSGSGTDFTLKISRVEAEDVGVYYCGQGTQVPYTFGQGTKLEIKRTVAAPSVFIFPPSDEQLKSGTASVVCLLNNFYPREAKVQWKVDNALQSGNSQESVTEQDSKDSTYSLSSTLTLSKADYEKHKVYACEVTHQGLSSPVTKSFNRGEC
B7: NNS6f50 (CE115HA340 with LTGGLG inserted between Kabat positions 99 and 100), one-arm antibody (antibody)
chain 1: B6 chain 1 with H106L, F107T, M108G, W109G, W110L
chain 2: B6 chain 2
chain 3: B6 chain 3
B8: NNS6f51 (CE115HA340 with GFLVLW inserted between Kabat positions 99 and 100), one-arm antibody (antibody)
chain 1: B6 chain 1 with H106G, M108L, W109V, W110L, G111W
chain 2: B6 chain 2
chain 3: B6 chain 3
B9: NNS6f52 (CE115HA340 with YMLGLG inserted between Kabat positions 99 and 100), one-arm antibody (antibody)
chain 1: B6 chain 1 with H106Y, F107M, M108L, W109G, W110L
chain 2: B6 chain 2
chain 3: B6 chain 3
B10: NNS6f54 (CE115HA340 with FEWVGW inserted between Kabat positions 99 and 100), one-arm antibody (antibody)
chain 1: B6 chain 1 with H106F, F107E, M108W, W109V, W110G, G111W
chain 2: B6 chain 2
chain 3: B6 chain 3
B11: NNS6f55 (CE115HA340 with AGRWLA inserted between Kabat positions 99 and 100), one-arm antibody (antibody)
chain 1: B6 chain 1 with H106A, F107G, M108R, W110L, G111A
chain 2: B6 chain 2
chain 3: B6 chain 3
B12: NNS6f56 (CE115HA340 with REATRW inserted between Kabat positions 99 and 100), one-arm antibody (antibody, V domains shown)
VH: QVQLVESGGGLVQPGRSLRLSCAASGFTFSNAWMHWVRQAPGKGLEWVAQIKDKSNNYATYYAESVKGRFTISRDDSKNSIYLQMNSLKTEDTAVYYCRYVHYAAREATRWYYGVDAWGQGTTVTVSS
VL: B5 VL
B13: NNS6f58 (CE115HA340 with SWQVSR inserted between Kabat positions 99 and 100), one-arm antibody (antibody, V domains shown)
VH: B12 VH with R106S, E107W, A108Q, T109V, R110S, W111R
VL: B5 VL
B14: NNS6f59 (CE115HA340 with LLVQEG inserted between Kabat positions 99 and 100), one-arm antibody (antibody)
chain 1: B6 chain 1 with H106L, F107L, M108V, W109Q, W110E
chain 2: B6 chain 2
chain 3: B6 chain 3
B15: NNS6f62 (CE115HA340 with NGGTRH inserted between Kabat positions 99 and 100), one-arm antibody (antibody)
chain 1: B6 chain 1 with H106N, F107G, M108G, W109T, W110R, G111H
chain 2: B6 chain 2
chain 3: B6 chain 3
B16: NNS6f63 (CE115HA340 with GGGGWV inserted between Kabat positions 99 and 100), one-arm antibody (antibody)
chain 1: B6 chain 1 with H106G, F107G, M108G, W109G, G111V
chain 2: B6 chain 2
chain 3: B6 chain 3
B17: NNS6f64 (CE115HA340 with LVSLTV inserted between Kabat positions 99 and 100), one-arm antibody (antibody, V domains shown)
VH: B12 VH with R106L, E107V, A108S, T109L, R110T, W111V
VL: B5 VL
B18: NNS6f67 (CE115HA340 with GLLRAA inserted between Kabat positions 99 and 100), one-arm antibody (antibody, V domains shown)
VH: B12 VH with R106G, E107L, A108L, T109R, R110A, W111A
VL: B5 VL
B19: NNS6f68 (CE115HA340 with VEWGRW inserted between Kabat positions 99 and 100), one-arm antibody (antibody, V domains shown)
VH: B12 VH with R106V, A108W, T109G
VL: B5 VL
B20: NNS6f71 (CE115HA340 with GWVLGS inserted between Kabat positions 99 and 100), one-arm antibody (antibody, V domains shown)
VH: B12 VH with R106G, E107W, A108V, T109L, R110G, W111S
VL: B5 VL
B21: NNS6f72 (CE115HA340 with EGIWWG inserted between Kabat positions 99 and 100), one-arm antibody (antibody, V domains shown)
VH: B12 VH with R106E, E107G, A108I, T109W, R110W, W111G
VL: B5 VL
B22: NNS6f73 (CE115HA340 with WVVGVR inserted between Kabat positions 99 and 100), one-arm antibody (antibody, V domains shown)
VH: B12 VH with R106W, E107V, A108V, T109G, R110V, W111R
VL: B5 VL

Each binder was assayed against T4, biotin-labeled human CD137 fused to human IgG1 Fc fragment (human, biotin-labeled) (assay: bead ELISA; RLU on human CD137-Fc divided by RLU on human Fc).
T4 construct: also called human CD137-Fc; biotin-human CD137-Fc
T4 sequence (chain, as listed by the source limits assumed): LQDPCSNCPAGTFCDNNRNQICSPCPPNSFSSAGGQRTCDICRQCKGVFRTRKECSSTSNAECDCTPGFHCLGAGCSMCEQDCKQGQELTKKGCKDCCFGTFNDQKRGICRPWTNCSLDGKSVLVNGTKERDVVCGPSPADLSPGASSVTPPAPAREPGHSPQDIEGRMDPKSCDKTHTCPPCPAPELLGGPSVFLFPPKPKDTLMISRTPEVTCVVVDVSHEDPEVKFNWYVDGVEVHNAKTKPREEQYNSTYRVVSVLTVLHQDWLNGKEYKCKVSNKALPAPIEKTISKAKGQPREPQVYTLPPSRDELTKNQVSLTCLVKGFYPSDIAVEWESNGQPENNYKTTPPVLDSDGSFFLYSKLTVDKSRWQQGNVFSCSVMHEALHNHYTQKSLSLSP
Experimental: (§1) First, 20 micro g of Streptavidin-coated magnetic beads MyOne-T1 beads was washed three-times with blocking buffer including 0.5× block Ace, 0.02% Tween and 0.05% ProClin 300 and then blocked with this blocking buffer at room temperature for 60 minutes or more. […] After that each well was washed with TBST. […] The plate was incubated for one hour. […] 2 minutes later the fluorescence of each well was detected.

| Binder | S/N ratio human CD137-Fc/Fc |
| --- | --- |
| B1 | 20.3 |
| B2 | 17.3 |
| B3 | 23.8 |
| B4 | 13.1 |

Biological target: T1, biotin-labeled cynomolgus monkey CD137 …
Experiment: bead ELISA (chemiluminescence), purified IgG on biotin labeled cyno CD137-Fc on streptavidin beads
Experimental: as §1

| Binder | RLU [RLU] |
| --- | --- |
| B1 | 10800 |
| B2 | 6200 |
| B3 | 5090 |
| B4 | 10900 |

Biological target: T2, biotin-labeled CD3 epsilon peptide …
Experiment: bead ELISA, biotin-CD3 epsilon peptide on streptavidin beads, 100 ng IgG

| Binder | RLU, CD3 peptide [RLU] | S/N ratio CD3 peptide/non coating |
| --- | --- | --- |
| B5 | 177000 | 148 |

These binders were tested against T4, biotin-labeled human CD137 fused to … (assay: bead ELISA (chemiluminescence), purified IgG on biotin labeled human CD137-Fc on streptavidin beads).
Experimental: as §1

| Binder | RLU [RLU] |
| --- | --- |
| B1 | 39100 |
| B2 | 32800 |
| B3 | 77800 |
| B4 | 38100 |

Biological target: T1, biotin-labeled cynomolgus monkey CD137 …
Experiment: bead ELISA; RLU on cyno CD137-Fc divided by RLU on human Fc
Experimental: as §1

| Binder | S/N ratio cyno CD137-Fc/Fc |
| --- | --- |
| B1 | 5.6 |
| B2 | 3.27 |
| B3 | 1.56 |
| B4 | 3.73 |

Biological target: T3, biotinylated CD3 epsilon epitope peptide
Experiment: SPR (Biacore); biotinylated CD3 epsilon epitope peptide on chip via streptavidin, antibody as analyte

| Binder | Kd [nM] |
| --- | --- |
| B6 | 31 |
| B7 | 71 |
| B8 | 31 |
| B9 | 52 |
| B10 | 29 |
| B11 | 31 |
| B12 | 21 |
| B13 | 44 |
| B14 | 200 |
| B15 | 61 |
| B16 | 69 |
| B17 | 78 |
| B18 | 36 |
| B19 | 45 |
| B20 | 51 |
| B21 | 150 |
| B22 | 26 |
